Experimental findings from PMC4976313, “ZCF32, a fungus specific Zn(II)2 Cys6 transcription factor, is a repressor of the biofilm development in the human pathogen Candida albicans” are described below.

The target of the data set is T1, Zcf32 ZFN-MBP (Candida albicans, UniProt Q5ANG4 1-116).
T1 sequence: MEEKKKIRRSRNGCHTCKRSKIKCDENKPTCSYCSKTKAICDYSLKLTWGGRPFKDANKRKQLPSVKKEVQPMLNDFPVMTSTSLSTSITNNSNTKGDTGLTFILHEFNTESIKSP
In words: EMSA; EMSA: 1X HEPES buffer (20 mM HEPES pH 7.8, 150 mM KCl, 0.1% BSA, 10% glycerol), on ice 30 min, 6% native PAGE. The settings on record: protein: recombinant; tags: MBP (pMAL-c2x); chain copies: 2; label: 32P 5' end; blunt. A general note: Mobility shift assays separate free from complexed probe on a gel.

B1: O2 (dsDNA)
DNA 1: CCGATATAGCCGATGCAT
DNA 2: ATGCATCGGCTATATCGG
B1: the binding result was “binds”.

B2: O1 (dsDNA)
DNA 1: TACCCGATATAGCCGATG
DNA 2: CATCGGCTATATCGGGTA
Take B2: the binding result is reported as “binds”.
